In patent publication US10513540B2, “Modulation of the immune response” (THE BRIGHAM AND WOMEN'S HOSPITAL, INC., priority 2012, dated 2019):

Tests used:
CD4+T-cells = assay: In vitro re-stimulation of CD4+ T-cells from SEB-immunized mice, TIM3 expression by FACS; assay type: cell-based, mouse
TIM3 = molecular target: T1, TIM3 (Mus musculus, UniProt Q8VIM0); assay: Staining of primary T cells with mouse CEACAM1 N-domain Fc fusion protein with or without blocking antibody (FIG. 9); assay type: binding; conditions: primary naive T cells of TIM3 Tg mice
T1 construct: expressed in transfected cells; also crossed to Ceacam1-/-), with the transgene under the human CD2 promoter
T1 sequence (Q8VIM0 20-281): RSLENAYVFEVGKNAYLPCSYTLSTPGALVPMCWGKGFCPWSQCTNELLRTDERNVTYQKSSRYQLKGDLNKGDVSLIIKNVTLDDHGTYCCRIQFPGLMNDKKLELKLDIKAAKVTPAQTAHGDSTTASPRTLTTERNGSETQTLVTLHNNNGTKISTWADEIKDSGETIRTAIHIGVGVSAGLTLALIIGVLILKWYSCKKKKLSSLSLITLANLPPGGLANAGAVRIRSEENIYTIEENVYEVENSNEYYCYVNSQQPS
Source text: Primary naïve T cells were isolated from B6 (WT) mice with transgenic (Tg) overexpression of TIM3 in T cells, wherein TIM3 is controlled by the human CD2 promotor, and TIM3 Tg mice crossed to […] (knockout) or […]. Primary T cells were stained with a mouse N-domain as an Fc fusion protein in the presence or absence of varying concentrations of a TIM3 specific monoclonal antibody, 2C12, to block binding. *, P<0.05; **, P<0.01

TIM3 on primary T cells = assay: In vivo administration of N-CEACAM1-Fc, then in vitro stimulation of lymph node cells with anti-CD3 or SEB (FIGS. 10A-10B); parameters: species or system mouse; conditions: 100 μg intraperitoneally, lymph nodes at 10 days
CD4+Vβ8+ T cells = conditions: SEB treatment in presence or absence of fusion protein

B1: CEACAM1-Fc fusion protein: mouse CEACAM1 N-domain as an Fc fusion protein; Fc for fusion protein is human (protein)
chain: EVTIEAVPPQVAEDNNVLLLVHNLPLALGAFAWYKGNTTAIDKEIARFVPNSNMNFTGQAYSGREIIYSNGSLLFQMITMKDMGVYTLDMTDENYRRTQATVRFHVHP
modifications: left off: a dimerising Fc or GST
notes: mouse CEACAM1 N-domain as an Fc fusion protein; Fc for fusion protein is human
B1 was tested, and the “TIM3 up-regulation in response to SEB re-stimulation (Mean Fluorescence)” value (CD4+T-cells; SEB-responsive T-cells, CEACAM1 ligation with fusion protein, in vitro re-stimulation) was 29%, the “TIM3 expression on gated CD4+ T-cells” value (CD4+T-cells; in vitro, 0.5 mg/ml, 48 hours) was “up-regulates TIM-3 in vitro” and the “Binding to TIM3 on primary transgenic T cells” value (TIM3) was “binds in trans to TIM3”. For the same molecule, the “Induction of tolerance (proliferation, interferon gamma production)” value (TIM3 on primary T cells) was “induce tolerance” and the “T cell receptor engagement by SEB (deletion of CD4+Vβ8+ T cells)” value (CD4+Vβ8+ T cells) was “not significantly influenced”.
